From patent US20110165265A1, “TRAIL VARIANTS FOR TREATING CANCER” (FUNDACIÓ GENÒMICA (CRG), priority 2007, published 2011)
Each block holds one molecule with its values, some of them ahead of it.

Key:
TRAIL R1, R2, R3 and R4 = assay: TRAIL receptor membrane expression by flow cytometry; format: cell-based
Method: Analysis of TRAIL-receptor membrane expression was performed by FACS analysis as described previously^35. For death receptor expression after cisplatin exposure, cells were exposed for 4 h, washed with PBS and incubated for 20 h in regular culture medium, after which FACS analysis was performed. Cells were subsequently washed twice with cold PBS containing 2% FCS and 0.1% sodium azide and incubated with phycoerythrin (PE)-conjugated mouse monoclonal antibodies against DR4, DR5, DcR1 and DcR2. Mouse PE-labeled IgG1 and IgG2B were used as isotype controls. All PE-labeled antibodies were purchased from R&D systems (Oxon, UK). Membrane receptor expression was analyzed with Winlist and Winlist 32 software (Verity Software House, Inc., Topsham, Me.) and is shown as mean fluorescent intensity (MFI) of all analyzed cells.
In order to determine the cell surface expression of each of the TRAIL receptors on A2780 carcinoma cells, cells were washed twice in PBS containing 1% BSA and then incubated with monoclonal antibodies to DR4, DR5, DcR1 or DcR2 (Alexis) for 40 min. After two wash steps with PBS/BSA, anti-mouse IgG-FITC (Sigma) secondary antibody was added for 30 min. All incubations were carried out on ice. Negative controls contained isotype control antibody. Cells were analyzed by a FacsCalibur flow cytometer.

A2780 cells = assay: Microculture tetrazolium cytotoxicity assay in A2780; format: cell-based, human; details: A2780, 4 h pre-incubation; read-out: inhibitory concentration 20% (IC20)
Method: The microculture tetrazolium assay, performed as described earlier^36, was used to measure cytotoxicity. […] In cell viability assays assessing combination treatment with cisplatin, the cells were pre-incubated for 4 h (h) with 2.5 μM cisplatin (inhibitory concentration 20%-IC20), before addition of 0-25 ng/ml TRAIL or TRAIL-DR5.

A2780-Luc xenografts = assay: IP A2780-Luc xenografts, bioluminescence imaging
Method: Visualization of response to TRAIL, TRAIL-DR5, cisplatin and to the combination of either ligand with cisplatin by means of bioluminescence imaging. Nude mice were inoculated IP with 2×10^6 A2780-Luc cells. After 5 days treatment was initiated; cisplatin (4 mg/kg IP) or vehicle at day 5 and 12, TRAIL, TRAIL-DR5 (5 mg/kg IP) or vehicle at day 5-10 and 12-16, or a combination of TRAIL or TRAIL-DR5 with cisplatin.
Female nude mice (Hsd:Athymic Nude-nu) were obtained from Harlan Nederland (Horst, The Netherlands) at 6-8 weeks of age (˜21 g). Inoculation was performed after 10 days of acclimatization.
Imaging was conducted with the IVIS 100 series (Xenogen Corporation Alameda, Calif.), composed of a cooled charge-coupled device camera connected to a light tight black chamber. Before in vivo imaging animals were anesthetized with 4% isoflurane and injected IP with D-luciferin (150 mg/kg, Xenogen) reconstituted in sterile PBS. Mice were placed in prone position on a warmed stage (37° C.) in the imaging chamber, and grayscale reference images were obtained under dim illumination. Pseudocolor images representing bioluminescent intensity were acquired with Livinglmage software (version 2.50, Xenogen) 10 and 15 min after D-luciferin injection in complete darkness. These images were superimposed on the grayscale images for analysis with Igor Pro software (version 4.09, WaveMetrics, Lake Oswego, Oreg.). All bioluminescence imaging (BLI) data are depicted in radiance units (photons/sec/cm^2/sr) enabling absolute comparisons between bioluminescent images and represent final data obtained after subtraction of the background signal.

[1] = 125I-TRAIL biodistribution in tumor-bearing mice; format: in vivo
Method: Radioiodination of TRAIL was performed with a TRAIL solution of 1 mg/ml in a pH 7.4 TRIS buffer, containing 100 μM zinc sulphate and 10% glycerol. 45 μg TRAIL and 50 μg chloramine T (Merck, Amsterdam, The Netherlands) were allowed to react with 70 MBq ^125I-NaI in 0.05 M NaOH (pH 9.0, GE Healthcare, Eindhoven, The Netherlands) during 3 min at pH 8.0. The labeling reaction was terminated with sodium metabisulfite (Acros Organics, Geel, Belgium). Non-bound ^1251 was removed by gel filtration chromatography. The PD-10 column (Sephadex™ G-25M, Amersham Biosciences AB, Uppsala, Sweden) was eluted with TRIS buffer, containing 100 μM zinc sulphate, 10% glycerol and 0.5% human serum albumin. Nude mice with IP A2780-Luc xenografts were prepared, as described above.
The in vivo biodistribution study was conducted in 50 mice after establishment of A2780-Luc IP xenografts. ^125I-TRAIL (0.15 ml; 150 kBq, 0.5 μg) was administered IV through retro-orbital injection in 25 mice, and IP in 25 mice. At five time points after injection (t=15, 30, 60, 90 and 360 min) groups of 5 mice were sacrificed and organs and tissues were excised, rinsed for residual blood and weighed. Tumor tissue was additionally fixed in 10% buffered formalin for histological assessment. Samples were counted for radioactivity in a calibrated well-type LKB-1282-CompuGamma counter. Tissue activity was expressed as percentage of the injected dose/g tissue (% ID/g). Tumor-to- blood and tumor-to-muscle ratios were also calculated. All data were corrected for physical decay and compared with a known standard sample. Pharmacokinetic parameters were derived using the KINFIT module of the MW/PHARM computer program package (version 3.50, MediWare, Groningen, The Netherlands). Clearance rates of ^125I-TRAIL from the circulation were calculated using non-linear regression analysis.

p53 = p53 protein expression in cervical cancer cell lines; format: cell-based
Method: All three cervical cancer cell lines were treated with increasing concentration of Bortezomib to assess expression of p53 protein.

Colo205 tumors = Colo205 tumors in athymic nude mice; format: in vivo; details: 40 and 200 mg/kg, 2×5 days
[2] = Colo205, 5 mM Aspirin or 10 μM 5-Flurouracil, 24 h
[3] = Lovo, 2.5 mM Aspirin or 10 μM 5-Flurouracil, 24 h
[4] = SW948, 2.5 mM Aspirin or 10 μM 5-Flurouracil, 24 h

Molecule: N.N.[Cl][Pt][Cl] [cisplatin, cis-diamminedichloroplatinum (II), reference compound]
TRAIL receptor expression (TRAIL R1, R2, R3 and R4; A2780): dose dependent upregulation of DR5 and DcR2 expression
IC20 (A2780 cells): 2500 nM
mean signal reduction as to vehicle treated mice (A2780-Luc xenografts; day 16, IP treatment): 72.3%
light emission (bioluminescent signal) (A2780-Luc xenografts; day 16, mean±SEM): 1.3×10^8±2.4×10^7 radiance units
median survival (A2780-Luc xenografts; surrogate endpoint signal ≧3.1×10^8): 28 days

TRAIL receptor expression (TRAIL R1, R2, R3 and R4; [2]): induction of all TRAIL receptors
Molecule: O=c1[nH]cc(F)c(=O)[nH]1 [5-Flurouracil]
TRAIL receptor expression (TRAIL R1, R2, R3 and R4; [3]): induction of TRAIL R2, R3 and R4 receptors
TRAIL receptor expression (TRAIL R1, R2, R3 and R4; [4]): did not lead to any induction of the TRAIL receptors

Molecule: 125I-TRAIL: radioiodinated TRAIL
cleaved caspase-3 staining in tumor tissue ([1]; 15 min after injection): almost no cleaved caspase-3 was detected
cleaved caspase-3 staining in tumor tissue ([1]; 360 min after injection): increased cleaved caspase-3 staining
blood activity ([1]; IP, 15 min): 25.30±5.04 % ID/g
kidney uptake ([1]; IP, 15 min): 19.83±1.38 % ID/g
tumor activity ([1]; IP, 15 min): 11.31±1.51
tumor to blood ratio ([1]; IP, 15 min): 0.48±0.03
blood activity ([1]; IP, 30 min): 15.33±3.78 % ID/g
kidney uptake ([1]; IP, 30 min): 21.45±1.90 % ID/g
tumor activity ([1]; IP, 60 min): 12.91±3.29
tumor to blood ratio ([1]; IP, 60 min): 0.55±0.06
blood activity ([1]; IP, 90 min): 23.74±6.85 % ID/g
kidney uptake ([1]; IP, 90 min): 17.87±1.28 % ID/g
blood activity ([1]; IP, 360 min): 8.26±1.74 % ID/g
kidney uptake ([1]; IP, 360 min): 4.45±0.31 % ID/g
blood activity ([1]; IV, 15 min): 43.29±11.04 % ID/g
kidney uptake ([1]; IV, 15 min): 199.2±40.69 % ID/g
tumor to blood ratio ([1]; IV, 15 min): 0.13±0.02
blood activity ([1]; IV, 30 min): 30.51±12.40 % ID/g
kidney uptake ([1]; IV, 30 min): 126.6±49.68 % ID/g
tumor to blood ratio ([1]; IV, 60 min): 0.38±0.04
tumor activity ([1]; IV, 60 min (maximum)): 6.85±1.29
blood activity ([1]; IV, 90 min): 7.52±1.22 % ID/g
kidney uptake ([1]; IV, 90 min): 12.73±2.47 % ID/g
blood activity ([1]; IV, 360 min): 2.63±0.56 % ID/g
kidney uptake ([1]; IV, 360 min): 2.06±0.56 % ID/g

Molecule: CC(C)C[C@H](NC(=O)[C@H](Cc1ccccc1)NC(=O)c1cnccn1)B(O)O [Bortezomib]
TRAIL receptor expression (TRAIL R1, R2, R3 and R4; Caski, 5 nM, 24 h): increased receptor expression of TRAIL R2 and slight increase of TRAIL R3
TRAIL receptor expression (TRAIL R1, R2, R3 and R4; Hela, 10 nM, 24 h): increases receptor expression of all TRAIL receptors
TRAIL receptor expression (TRAIL R1, R2, R3 and R4; SIHA, 10 nM, 24 h): increases receptor expression of all TRAIL receptors
induction of p53 protein (p53; Caski): can be seen at concentrations of 1 nM with largest induction seen at 5 and 10 nM
induction of p53 protein (p53; HELA): seen also at 5 and 10 nM, though relatively smaller
induction of p53 protein (p53; SiHa): can be seen at 5 and 10 nM

TRAIL receptor expression (TRAIL R1, R2, R3 and R4; [4]): induction TRAIL-R2 expression only
Molecule: CC(=O)Oc1ccccc1C(=O)O [aspirin]
TRAIL receptor expression (TRAIL R1, R2, R3 and R4; [2]): induction TRAIL R2, R3 and R4 receptor expression
TRAIL receptor expression (TRAIL R1, R2, R3 and R4; [3]): induction TRAIL R4 and to a lesser extent TRAIL R2 receptor expression
effect on tumor growth, aspirin alone (Colo205 tumors): no difference in effect
side effects (Colo205 tumors): no side effects were found
